Results: publication PMC12394453
Values joined by “and” are separate entries in the source; they are usually repeats but may differ in a detail not shown here. Equal values may be shown once.

Molecular target: HeV-G (wild-type Hendra virus attachment glycoprotein G, soluble recombinant) (Hendra virus) (UniProt O89343)
Test: SEC; oligomeric states of the purified G protein (Supplementary Fig. 7)

HeV-G (wild-type Hendra virus attachment glycoprotein G, soluble recombinant), sequence (O89343 71-604 limits assumed): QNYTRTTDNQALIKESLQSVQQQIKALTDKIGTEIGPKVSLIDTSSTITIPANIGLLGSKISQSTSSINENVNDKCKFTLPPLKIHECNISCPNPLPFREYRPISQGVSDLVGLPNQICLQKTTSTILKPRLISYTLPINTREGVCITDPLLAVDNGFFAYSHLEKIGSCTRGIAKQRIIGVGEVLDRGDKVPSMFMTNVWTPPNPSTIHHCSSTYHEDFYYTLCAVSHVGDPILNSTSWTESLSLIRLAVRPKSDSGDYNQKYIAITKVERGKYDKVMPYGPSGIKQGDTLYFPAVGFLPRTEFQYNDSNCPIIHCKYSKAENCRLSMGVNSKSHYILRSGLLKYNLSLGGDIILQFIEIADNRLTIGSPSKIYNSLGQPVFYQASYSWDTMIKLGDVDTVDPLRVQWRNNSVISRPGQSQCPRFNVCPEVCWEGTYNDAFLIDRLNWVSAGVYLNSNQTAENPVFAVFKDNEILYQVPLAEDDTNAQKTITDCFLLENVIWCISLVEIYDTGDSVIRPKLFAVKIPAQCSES

Substance: HeV-G (wild-type Hendra virus attachment glycoprotein G, soluble recombinant) (from UniProt O89343 1-604) (natural protein)
- stoichiometry N: 4 and 2
